# Test results as given in the MegaScale stability set (Tsuboyama et al. 2023).
# B1: EHEE_rd2_1257 (parent)
# chain: EEERTFTNEEEARKAKKEAEKRGLRVTVTKDGTTWRVRIG
# Variants of: B1
# Assay: folding stability dG (cDNA display proteolysis); higher = more stable
# Details: PBS, room temperature
row,Variant,folding stability dG [kcal/mol]
1,EEERTFTNEEEARKAKKEAEKRKLRVTVTKDGTTWRVRIG,0.384
2,EEERTFTNEEEARKAKKEAEKRRLRVTVTKDGTTWRVRIG,0.397
3,EEERTFTNEEEARKAKKEAEKRWLRVTVTKDGTTWRVRIG,0.38
4,EEERTFTNEEEARKAKKEAEKRLLRVTVTKDGTTWRVRIG,0.537
5,EEERTFTNEEEARKAKKEAEKRQLRVTVTKDGTTWRVRIG,0.383
6,EEERTFTNEEEARKAKKEAEKRSLRVTVTKDGTTWRVRIG,0.399
7,EEERTFTNEEEARKAKKEAEKRVLRVTVTKDGTTWRVRIG,0.034
8,EEERTFTNEEEARKAKKEAEKRFLRVTVTKDGTTWRVRIG,0.9
9,EEERTFTNEEEARKAKKEAEKRYLRVTVTKDGTTWRVRIG,0.68
10,EEERTFTNEEEARKAKKEAEKRNLRVTVTKDGTTWRVRIG,0.986
11,EEERTFTNEEEARKAKKEAEKRMLRVTVTKDGTTWRVRIG,0.537
12,EEERTFTNEEEARKAKKEAEKRHLRVTVTKDGTTWRVRIG,0.993
13,EEERTFTNEEEARKAKKEAEKRGLRVTVKKDGTTWRVRIG,1.34
14,EEERTFTNEEEARKAKKEAEKRGLRVTVFKDGTTWRVRIG,2.32
15,EEERTFTNEEEARKAKKEAEKRGLRVTVWKDGTTWRVRIG,2.6
16,EEERTFTNEEEARKAKKEAEKRGLRVTVLKDGTTWRVRIG,1.8
17,EEERTFTNEEEARKAKKEAEKRGLRVTVIKDGTTWRVRIG,2.36
18,EEERTFTNEEEARKAKKEAEKRGLRVTVDKDGTTWRVRIG,1.2
19,EEERTFTNEEEARKAKKEAEKRGLRVTVVKDGTTWRVRIG,2.18
20,EEERTFTNEEEARKAKKEAEKRGLRVTVMKDGTTWRVRIG,1.83
21,EEERTFTNEEEARKAKKEAEKRGLRVTVQKDGTTWRVRIG,1.63
22,EEERTFTNEEEARKAKKEAEKRGLRVTVAKDGTTWRVRIG,1.29
23,EEERTFTNEEEARKAKKEAEKRGLRVTVGKDGTTWRVRIG,0.178
24,EEERTFTNEEEARKAKKEAEKRGLRVTVRKDGTTWRVRIG,1.51
25,EEERTFTNEEEARKAKKEAEKRGLRVTVNKDGTTWRVRIG,1.09

row,Variant,folding stability dG [kcal/mol]
1,EEERTFTNEEEARKAKKEAEKRGLRVTVHKDGTTWRVRIG,1.7
2,EEERTFTNEEEARKAKKEAEKRGLRVTVSKDGTTWRVRIG,1.62
3,EEERTFTNEEEARKAKKEAEKRGLRVTVCKDGTTWRVRIG,1.83
4,EEERTFTNEEEARKAKKEAEKRGLRVTVEKDGTTWRVRIG,1.87
5,EEERTFTNEEEARKAKKEAEKRGLRVTVYKDGTTWRVRIG,2.33
6,EEERTFTNEEEARKAKKEAEKRGLRVDVTKDGTTWRVRIG,1.05
7,EEERTFTNEEEARKAKKEAEKRGLRVEVTKDGTTWRVRIG,1.64
8,EEERTFTNEEEARKAKKEAEKRGLRVFVTKDGTTWRVRIG,1.83
9,EEERTFTNEEEARKAKKEAEKRGLRVMVTKDGTTWRVRIG,1.53
10,EEERTFTNEEEARKAKKEAEKRGLRVKVTKDGTTWRVRIG,1.43
11,EEERTFTNEEEARKAKKEAEKRGLRVLVTKDGTTWRVRIG,1.58
12,EEERTFTNEEEARKAKKEAEKRGLRVQVTKDGTTWRVRIG,1.49
13,EEERTFTNEEEARKAKKEAEKRGLRVVVTKDGTTWRVRIG,1.88
14,EEERTFTNEEEARKAKKEAEKRGLRVHVTKDGTTWRVRIG,1.57
15,EEERTFTNEEEARKAKKEAEKRGLRVSVTKDGTTWRVRIG,1.77
16,EEERTFTNEEEARKAKKEAEKRGLRVGVTKDGTTWRVRIG,0.262
17,EEERTFTNEEEARKAKKEAEKRGLRVAVTKDGTTWRVRIG,1.19
18,EEERTFTNEEEARKAKKEAEKRGLRVIVTKDGTTWRVRIG,1.95
19,EEERTFTNEEEARKAKKEAEKRGLRVRVTKDGTTWRVRIG,1.62
20,EEERTFTNEEEARKAKKEAEKRGLRVNVTKDGTTWRVRIG,1.15
21,EEERTFTNEEEARKAKKEAEKRGLRVYVTKDGTTWRVRIG,1.92
22,EEERTFTNEEEARKAKKEAEKRGLRVWVTKDGTTWRVRIG,1.96
23,EEERTFTNEEEARKAKKEAEKRGLRVTVTKCGTTWRVRIG,2.04
24,EEERTFTNEEEARKAKKEAEKRGLRVTVTKFGTTWRVRIG,1.69
25,EEERTFTNEEEARKAKKEAEKRGLRVTVTKEGTTWRVRIG,2.15

row,Variant,folding stability dG [kcal/mol]
1,EEERTFTNEEEARKAKKEAEKRGLRVTVTKAGTTWRVRIG,1.41
2,EEERTFTNEEEARKAKKEAEKRGLHVTVTKDGTTWRVRIG,2.15
3,EEERTFTNEEEARKAKKEAEKRGLFVTVTKDGTTWRVRIG,2.07
4,EEERTFTNEEEARKAKKEAEKRGLYVTVTKDGTTWRVRIG,2.07
5,EEERTFTNEEEARKAKKEAEKRGLWVTVTKDGTTWRVRIG,1.98
6,EEERTFTNEEEARKAKKEAEKRGLAVTVTKDGTTWRVRIG,1.62
7,EEERTFTNEEEARKAKKEAEKRGLTVTVTKDGTTWRVRIG,1.9
8,EEERTFTNEEEARKAKKEAEKRGLDVTVTKDGTTWRVRIG,1.23
9,EEERTFTNEEEARKAKKEAEKRGLEVTVTKDGTTWRVRIG,1.5
10,EEERTFTNEEEARKAKKEAEKRGLIVTVTKDGTTWRVRIG,1.95
11,EEERTFTNEEEARKAKKEAEKRGLMVTVTKDGTTWRVRIG,1.81
12,EEERTFTNEEEARKAKKEAEKRGLPVTVTKDGTTWRVRIG,1.47
13,EEERTFTNEEEARKAKKEAEKRGLNVTVTKDGTTWRVRIG,1.62
14,EEERTFTNEEEARKAKKEAEKRGLGVTVTKDGTTWRVRIG,0.797
15,EEERTFTNEEEARKAKKEAEKRGLQVTVTKDGTTWRVRIG,1.89
16,EEERTFTNEEEARKAKKEAEKRGLLVTVTKDGTTWRVRIG,1.87
17,EEERTFTNEEEARKAKKEAEKRGLVVTVTKDGTTWRVRIG,1.93
18,EEERTFTNEEEARKAKKEAEKRGLKVTVTKDGTTWRVRIG,2.06
19,EEERTFTNEEEARKAKKEAEKRGLSVTVTKDGTTWRVRIG,1.88
20,EEERTFTNEEEARKAKKEAEKRGLRVTMTKDGTTWRVRIG,2.37
21,EEERTFTNEEEARKAKKEAEKRGLRVTFTKDGTTWRVRIG,1.45
22,EEERTFTNEEEARKAKKEAEKRGLRVTCTKDGTTWRVRIG,1.96
23,EEERTFTNEEEARKAKKEAEKRGLRVTQTKDGTTWRVRIG,-0.917
24,EEERTFTNEEEARKAKKEAEKRGLRVTITKDGTTWRVRIG,2.71
25,EEERTFTNEEEARKAKKEAEKRGLRVTWTKDGTTWRVRIG,0.937

row,Variant,folding stability dG [kcal/mol]
1,EEERTFTNEEEARKAKKEAEKRGLRVTATKDGTTWRVRIG,-0.179
2,EEERTFTNEEEARKAKKEAEKRGLRVTLTKDGTTWRVRIG,2.58
3,EEERTFTNEEEARKAKKEAEKRGLRVTYTKDGTTWRVRIG,0.822
4,EEERTFTNEEEARKAKKEAEKRGLRVTTTKDGTTWRVRIG,0.613
5,EEERTFTNEEEARKAKKEAEKRGGRVTVTKDGTTWRVRIG,0.057
6,EEERTFTNEEEARKAKKEAEKRGIRVTVTKDGTTWRVRIG,1.16
7,EEERTFTNEEEARKAKKEAEKRGMRVTVTKDGTTWRVRIG,1.79
8,EEERTFTNEEEARKAKKEAEKRGNRVTVTKDGTTWRVRIG,0.631
9,EEERTFTNEEEARKAKKEAEKRGDRVTVTKDGTTWRVRIG,0.447
10,EEERTFTNEEEARKAKKEAEKRGWRVTVTKDGTTWRVRIG,1.61
11,EEERTFTNEEEARKAKKEAEKRGTRVTVTKDGTTWRVRIG,0.162
12,EEERTFTNEEEARKAKKEAEKRGFRVTVTKDGTTWRVRIG,2.15
13,EEERTFTNEEEARKAKKEAEKRGHRVTVTKDGTTWRVRIG,1.46
14,EEERTFTNEEEARKAKKEAEKRGQRVTVTKDGTTWRVRIG,1.41
15,EEERTFTNEEEARKAKKEAEKRGYRVTVTKDGTTWRVRIG,2.08
16,EEERTFTNEEEARKAKKEAEKRGSRVTVTKDGTTWRVRIG,0.594
17,EEERTFTNEEEARKAKKEAEKRGRRVTVTKDGTTWRVRIG,1.19
18,EEERTFTNEEEARKAKKEAEKRGERVTVTKDGTTWRVRIG,0.879
19,EEERTFTNEEEARKAKKEAEKRGVRVTVTKDGTTWRVRIG,1.21
20,EEERTFTNEEEARKAKKEAEKRGARVTVTKDGTTWRVRIG,0.982
21,EEERTFTNEEEARKAKKEAEKRGKRVTVTKDGTTWRVRIG,1.18
22,EEERTFTNEEEARKAKKEAEKRGLRGTVTKDGTTWRVRIG,0.489
23,EEERTFTNEEEARKAKKEAEKRGLRITVTKDGTTWRVRIG,0.589
24,EEERTFTNEEEARKAKKEAEKRGLRPTVTKDGTTWRVRIG,-0.777
25,EEERTFTNEEEARKAKKEAEKRGLRWTVTKDGTTWRVRIG,0.008

row,Variant,folding stability dG [kcal/mol]
1,EEERTFTNEEEARKAKKEAEKRGLRYTVTKDGTTWRVRIG,0.032
2,EEERTFTNEEEARKAKKEAEKRGLRLTVTKDGTTWRVRIG,0.171
3,EEERTFTNEEEARKAKKEAEKRGLRATVTKDGTTWRVRIG,2.13
4,EEERTFTNEEEARKAKKEAEKRGLRSTVTKDGTTWRVRIG,0.809
5,EEERTFTNEEEARKAKKEAEKRGLRMTVTKDGTTWRVRIG,0.445
6,EEERTFTNEEEARKAKKEAEKRGLRFTVTKDGTTWRVRIG,0.359
7,EEERTFTNEEEARKAKKEAEKRGLRTTVTKDGTTWRVRIG,0.897
8,EEERTFTNEEEARKAKKEAEKRGLRVTVTDDGTTWRVRIG,1.24
9,EEERTFTNEEEARKAKKEAEKRGLRVTVTYDGTTWRVRIG,3.22
10,EEERTFTNEEEARKAKKEAEKRGLRVTVTNDGTTWRVRIG,1.9
11,EEERTFTNEEEARKAKKEAEKRGLRVTVTEDGTTWRVRIG,1.31
12,EEERTFTNEEEARKAKKEAEKRGLRVTVTFDGTTWRVRIG,3.53
13,EEERTFTNEEEARKAKKEAEKRGLRVTVTMDGTTWRVRIG,1.75
14,EEERTFTNEEEARKAKKEAEKRGLRVTVTSDGTTWRVRIG,2.14
15,EEERTFTNEEEARKAKKEAEKRGLRVTVTHDGTTWRVRIG,2.22
16,EEERTFTNEEEARKAKKEAEKRGLRVTVTGDGTTWRVRIG,1.32
17,EEERTFTNEEEARKAKKEAEKRGLRVTVTTDGTTWRVRIG,2.57
18,EEERTFTNEEEARKAKKEAEKRGLRVTVTQDGTTWRVRIG,2.13
19,EEERTFTNEEEARKAKKEAEKRGLRVTVTLDGTTWRVRIG,1.99
20,EEERTFTNEEEARKAKKEAEKRGLRVTVTIDGTTWRVRIG,1.66
21,EEERTFTNEEEARKAKKEAEKRGLRVTVTVDGTTWRVRIG,1.83
22,EEERTFTNEEEARKAKKEAEKRGLRVTVTRDGTTWRVRIG,2.04
23,EEERTFTNEEEARKAKKEAEKRGLRVTVTADGTTWRVRIG,1.53
24,EEERTFTNEEEARKAKKEAEKRGLRVTVTPDGTTWRVRIG,0.867
25,EEERTFTNEEEARKAKKEAEKRGLRVTVTWDGTTWRVRIG,3.02
